In the experiment the target is α4 laminin fragment G^919-1207 (SEQ ID NO:13) (human), Q16363. Nature of the experiment: solid-phase saturation binding ELISA: coated G^919-1207 at varying concentrations, soluble integrin at 5 ng/µl, detected with LM609.
Chain of α4 laminin fragment G^919-1207 (SEQ ID NO:13) (human), Q16363 (Q16363 926-1214 G1117S/P1119X limits assumed): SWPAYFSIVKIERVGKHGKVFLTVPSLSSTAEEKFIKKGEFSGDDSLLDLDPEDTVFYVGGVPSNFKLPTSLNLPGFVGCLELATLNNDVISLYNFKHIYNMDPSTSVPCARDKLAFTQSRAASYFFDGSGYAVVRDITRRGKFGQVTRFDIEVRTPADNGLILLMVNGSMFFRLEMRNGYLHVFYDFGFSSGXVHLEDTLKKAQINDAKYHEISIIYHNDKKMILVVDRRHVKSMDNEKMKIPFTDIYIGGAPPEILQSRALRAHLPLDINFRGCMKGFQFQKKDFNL

B1: soluble αvβ3 integrin heterodimer (Chemicon International), P06756 31-992; P05106 27-718 (receptor)
chain 1: FNLDVDSPAEYSGPEGSYFGFAVDFFVPSASSRMFLLVGAPKANTTQPGIVEGGQVLKCDWSSTRRCQPIEFDATGNRDYAKDDPLEFKSHQWFGASVRSKQDKILACAPLYHWRTEMKQEREPVGTCFLQDGTKTVEYAPCRSQDIDADGQGFCQGGFSIDFTKADRVLLGGPGSFYWQGQLISDQVAEIVSKYDPNVYSIKYNNQLATRTAQAIFDDSYLGYSVAVGDFNGDGIDDFVSGVPRAARTLGMVYIYDGKNMSSLYNFTGEQMAAYFGFSVAATDINGDDYADVFIGAPLFMDRGSDGKLQEVGQVSVSLQRASGDFQTTKLNGFEVFARFGSAIAPLGDLDQDGFNDIAIAAPYGGEDKKGIVYIFNGRSTGLNAVPSQILEGQWAARSMPPSFGYSMKGATDIDKNGYPDLIVGAFGVDRAILYRARPVITVNAGLEVYPSILNQDNKTCSLPGTALKVSCFNVRFCLKADGKGVLPRKLNFQVELLLDKLKQKGAIRRALFLYSRSPSHSKNMTISRGGLMQCEELIAYLRDESEFRDKLTPITIFMEYRLDYRTAADTTGLQPILNQFTPANISRQAHILLDCGEDNVCKPKLEVSVDSDQKKIYIGDDNPLTLIVKAQNQGEGAYEAELIVSIPLQADFIGVVRNNEALARLSCAFKTENQTRQVVCDLGNPMKAGTQLLAGLRFSVHQQSEMDTSVKFDLQIQSSNLFDKVSPVVSHKVDLAVLAAVEIRGVSSPDHVFLPIPNWEHKENPETEEDVGPVVQHIYELRNNGPSSFSKAMLHLQWPYKYNNNTLLYILHYDIDGPMNCTSDMEINPLRIKISSLQTTEKNDTVAGQGERDHLITKRDLALSEGDIHTLGCGVAQCLKIVCQVGRLDRGKSAILYVKSLLWTETFMNKENQNHSYSLKSSASFNVIEFPYKNLPIEDITNSTLVTTNVTWGIQPAPMPV
chain 2: GPNICTTRGVSSCQQCLAVSPMCAWCSDEALPLGSPRCDLKENLLKDNCAPESIEFPVSEARVLEDRPLSDKGSGDSSQVTQVSPQRIALRLRPDDSKNFSIQVRQVEDYPVDIYYLMDLSYSMKDDLWSIQNLGTKLATQMRKLTSNLRIGFGAFVDKPVSPYMYISPPEALENPCYDMKTTCLPMFGYKHVLTLTDQVTRFNEEVKKQSVSRNRDAPEGGFDAIMQATVCDEKIGWRNDASHLLVFTTDAKTHIALDGRLAGIVQPNDGQCHVGSDNHYSASTTMDYPSLGLMTEKLSQKNINLIFAVTENVVNLYQNYSELIPGTTVGVLSMDSSNVLQLIVDAYGKIRSKVELEVRDLPEELSLSFNATCLNNEVIPGLKSCMGLKIGDTVSFSIEAKVRGCPQEKEKSFTIKPVGFKDSLIVQVTFDCDCACQAQAEPNSHRCNNGNGTFECGVCRCGPGWLGSQCECSEEDYRPSQQDECSPREGQPVCSQRGECLCGQCVCHSSDFGKITGKYCECDDFSCVRYKGEMCSGHGQCSCGDCLCDSDWTGYYCNCTTRTDTCMSSNGLLCSGRGKCECGSCVCIQPGSYGDTCEKCPTCPDACTFKKECVECKKFDRGALHDENTCNRYCRDEIESVKELKDTGKDAVNCTYKNEDDCVVRFQYYEDSSGKSILYVVEEPECPKGPD
For the molecule B1, the Kd came out at 4 nM.

A word on the Kd: it is the free concentration of one partner at which half of the binding sites on the other are occupied at equilibrium, for simple one-to-one binding. Read a high Kd as lower affinity.

For the origin of these results see patent publication US20030103975A1.
